What was measured:
[1] = test system: patients with advanced solid tumors; experiment: Phase I study of ganitumab plus everolimus: DLT, MTD/RPTD and adverse events (NCI Common Toxicity Criteria version 4.0); format: in vivo; settings: subjects on G+E, summary
Experimental: The maximum tolerated doses/recommended phase II dose for the doublet combination, ganitumab (G) plus everolimus (E) followed by an expanded cohort was evaluated to better understand the safety and tolerability profile of this drug combination.
The primary objective of this study was to determine the maximum tolerated dose (MTD) and Recommended Phase II Dose (RPTD) of G+E in patients with advanced solid tumors. Secondary objectives were to describe any toxicities associated with this regimen and to preliminarily describe clinical activity (progression-free survival (PFS)), overall survival (OS), partial response (PR), complete response (CR) or stable disease (SD)>6 months.
For dose escalation, eligible patients had advanced solid tumors with adequate organ function and no increased risk for class-related toxicities. G was given intravenously, and E was orally administered; cycle length was 28 days. Stage I was a dose escalation; cohort size: 3-6 patients; Stage II was an expansion at MTD with a cohort size of 20 patients.
An intermediate dose of E at 5 mg five times weekly was added to better maximize dose intensity. Dose limiting toxicity (DLT) was assessed in cycle 1.
AEs were graded according to the NCI Common Toxicity Criteria version 4.0. Efficacy was assessed every 2 cycles with computed tomography (CT) using Response Evaluation Criteria in Solid Tumors (RECIST 1.1) guidelines.

[2] = test system: skin; experiment: Dermapathology evaluation of cutaneous biopsies from study subjects; format: in vivo, human
Source text: Dose escalation was complete with 17 subjects evaluable for DLT toxicity and 16 evaluable for efficacy (see Table 2). […] One non-treatment-related death was due to disease progression. […] Twelve subjects have available efficacy data; 4 subjects have not yet been restaged. Two subjects with refractory NSCLC achieved a complete response. Six additional subjects had stable disease as best response.

Substance: ganitumab
- Skin toxicities [1]: consistent with hypersensitivity to Ganitumab
- Finding in the third cutaneous biopsy ([2]; interpreted as part of the skin toxicity to G): spongiotic dermatitis with mixed inflammatory infiltrate with abundant eosinophils
- Cutaneous biopsies revealing hypersensitivity reaction in the form of superficial perivascular dermatitis ([2]; mild perivascular lymphocytic infiltrate with eosinophils, subjects on G+E): 2 out of 3
